{"source": "patent US20130197191A1", "about": "(published 2013)", "data": [{"biological_target": "recombinant human β-Klotho (UniProt Q86Z14 53-996, biotinylated in the AlphaScreen assays (site not stated))", "sequence (Q86Z14 53-996)": "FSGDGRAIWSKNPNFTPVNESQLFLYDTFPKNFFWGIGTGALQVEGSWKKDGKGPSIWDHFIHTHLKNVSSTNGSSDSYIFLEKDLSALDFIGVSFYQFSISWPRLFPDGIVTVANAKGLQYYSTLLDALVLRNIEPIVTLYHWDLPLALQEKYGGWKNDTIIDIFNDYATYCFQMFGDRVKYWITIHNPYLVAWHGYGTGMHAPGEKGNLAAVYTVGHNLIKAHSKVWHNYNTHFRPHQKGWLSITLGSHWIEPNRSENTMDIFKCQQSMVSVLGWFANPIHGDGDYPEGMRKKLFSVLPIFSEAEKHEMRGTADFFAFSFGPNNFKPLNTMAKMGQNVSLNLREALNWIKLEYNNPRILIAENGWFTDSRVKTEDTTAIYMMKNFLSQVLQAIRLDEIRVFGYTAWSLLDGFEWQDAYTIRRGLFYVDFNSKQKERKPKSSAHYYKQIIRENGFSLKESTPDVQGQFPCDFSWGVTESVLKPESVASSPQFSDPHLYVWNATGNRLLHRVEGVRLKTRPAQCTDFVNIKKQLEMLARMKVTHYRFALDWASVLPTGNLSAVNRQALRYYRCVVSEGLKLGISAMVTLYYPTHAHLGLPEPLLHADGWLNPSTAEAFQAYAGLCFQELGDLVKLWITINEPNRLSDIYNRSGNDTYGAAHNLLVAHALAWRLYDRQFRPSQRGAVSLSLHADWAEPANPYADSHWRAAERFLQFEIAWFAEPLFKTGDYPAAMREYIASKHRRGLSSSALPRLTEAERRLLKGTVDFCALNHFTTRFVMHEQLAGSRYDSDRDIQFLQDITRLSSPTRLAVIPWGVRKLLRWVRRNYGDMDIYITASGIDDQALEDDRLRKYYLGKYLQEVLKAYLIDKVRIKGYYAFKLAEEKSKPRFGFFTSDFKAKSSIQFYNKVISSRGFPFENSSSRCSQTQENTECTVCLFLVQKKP", "test": "binding EC50", "units": {"EC50": "nM"}, "values": [{"binder": "β-Klotho walked dimer BK_R1c_D22 (designed binder) CQPDEFTCSSGRCIPQPWLCDGLNDCGDGSDEPPAHCSAPASEPPGSLCRPDEFRCKNGRCIPQTWVCDGEDDCQDSSDETDCESTVRT", "EC50": 99}, {"binder": "β-Klotho walked dimer BK_R1c_D05 (designed binder) CAAGQFRCHNSDTCLPGAWVCDGDNDCGDNSDEASCQKRTCHSFNQFECRNGQCIPLHLVCDGVPDCGDNSDETDCGDSHILPFSTPGPST", "EC50": 0.01}, {"binder": "β-Klotho walked dimer BK_R1c_D18 (designed binder) CPPDEFQCRGTKKCLPLAWVCDGDNDCEDDSDEESCASAVHTCQSNEFRCRSGRCIPQHWLCDGLNDCGDGSDESQQCSAPASEPPGSL", "EC50": 21.5}, {"binder": "β-Klotho walked dimer BK_R1c_D24 (designed binder) CRPDEFPCRSTGRCVPRRWVCDGVDDCGDNSDESLAHCQTPTCQPDEFTCSSGRCIPQPWLCDGLNDCGDGSDEPPAHCSAPASEPPGSL", "EC50": 8.52}]}]}
